Where two headings read alike, the source gives them in different places.
What was measured:
[1] = biological target: full-length human PD-1 on CHO-hPD-1 cells (human) (UniProt Q15116); experiment: flow cytometry on CHO-hPD-1 cells with FITC-labeled antibody
[2] = biological target: PD-1 on Jurkat-PD-1-NFAT cells (UniProt Q15116); experiment: cell-based or functional assay
monkey PD-1-hFc (monkey) [3] = experiment: ELISA, coated monkey PD-1-hFc
[4] = biological target: full-length human PD-1 on CHO-hPD-1 cells (human) (UniProt Q15116); experiment: flow cytometry, FITC-labelled antibody on CHO-hPD-1 cells
FcRn protein = FcRn protein (UniProt P55899); experiment: BLI (Octet ForteBio), FcRn on SA biosensor, antibody in PBST pH6.0
human PD-1-His (human) = human PD-1-His (human) (UniProt Q15116); experiment: BLI (Octet ForteBio), antibody on ProA biosensor, PD-1-His in solution
[5] = biological target: human PD-1-ECD-mFc (human; mouse) (UniProt Q15116); experiment: ELISA, coated human PD-1-mFc
monkey PD-1-hFc (monkey) [6] = experiment: ELISA, coated monkey PD-1-hFc; remark: listed apart in the source
CD64 protein = CD64 protein (UniProt P12314); experiment: BLI (Octet ForteBio), CD64 on SA biosensor, antibody in solution
CD64 protein, sequence (P12314 16-288 limits assumed): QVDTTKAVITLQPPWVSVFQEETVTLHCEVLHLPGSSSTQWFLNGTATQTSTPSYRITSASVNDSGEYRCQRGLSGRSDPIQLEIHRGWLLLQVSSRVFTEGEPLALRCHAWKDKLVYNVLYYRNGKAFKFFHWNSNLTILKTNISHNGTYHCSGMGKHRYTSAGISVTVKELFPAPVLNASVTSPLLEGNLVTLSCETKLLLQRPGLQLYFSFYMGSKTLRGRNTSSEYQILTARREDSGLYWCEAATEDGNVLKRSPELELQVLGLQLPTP

monkey PD-1-hFc (monkey), sequence (chain, as listed by the source limits assumed): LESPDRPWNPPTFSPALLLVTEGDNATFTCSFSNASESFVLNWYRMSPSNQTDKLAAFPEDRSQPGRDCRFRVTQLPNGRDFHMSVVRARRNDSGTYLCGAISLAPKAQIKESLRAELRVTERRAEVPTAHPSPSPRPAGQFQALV
control antibody 3 (tirelizumab, IMGT ID: 757), sequence (HC): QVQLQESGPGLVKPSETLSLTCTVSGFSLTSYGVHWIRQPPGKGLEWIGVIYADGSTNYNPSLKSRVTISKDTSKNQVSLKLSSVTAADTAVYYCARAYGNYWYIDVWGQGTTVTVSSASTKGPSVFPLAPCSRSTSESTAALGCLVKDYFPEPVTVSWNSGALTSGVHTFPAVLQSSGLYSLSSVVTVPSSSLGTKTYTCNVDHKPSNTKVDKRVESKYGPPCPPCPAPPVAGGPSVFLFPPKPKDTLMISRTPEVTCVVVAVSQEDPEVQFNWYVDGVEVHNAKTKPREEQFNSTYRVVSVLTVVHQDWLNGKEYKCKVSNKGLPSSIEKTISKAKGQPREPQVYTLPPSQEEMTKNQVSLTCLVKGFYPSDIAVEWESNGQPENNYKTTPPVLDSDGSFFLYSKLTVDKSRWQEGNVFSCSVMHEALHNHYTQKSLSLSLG
control antibody 3 (tirelizumab, IMGT ID: 757), sequence (LC): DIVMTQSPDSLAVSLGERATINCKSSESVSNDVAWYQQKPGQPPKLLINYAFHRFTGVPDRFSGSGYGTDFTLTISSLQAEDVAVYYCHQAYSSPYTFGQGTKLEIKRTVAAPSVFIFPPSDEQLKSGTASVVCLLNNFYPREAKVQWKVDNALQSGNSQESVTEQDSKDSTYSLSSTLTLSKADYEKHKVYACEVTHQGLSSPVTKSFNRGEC
full-length human PD-1 on CHO-hPD-1 cells (human), sequence (Q15116 25-288): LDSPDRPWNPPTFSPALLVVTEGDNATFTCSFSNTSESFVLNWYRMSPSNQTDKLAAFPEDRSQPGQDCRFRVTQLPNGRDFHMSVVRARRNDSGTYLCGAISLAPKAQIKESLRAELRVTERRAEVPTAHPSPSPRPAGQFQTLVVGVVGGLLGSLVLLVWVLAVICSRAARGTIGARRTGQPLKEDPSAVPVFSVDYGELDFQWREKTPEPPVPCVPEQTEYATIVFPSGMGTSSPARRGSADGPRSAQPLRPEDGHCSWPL
PD-1 on Jurkat-PD-1-NFAT cells, sequence (Q15116 25-288 limits assumed): as the sequence (Q15116 25-288) above
human PD-1-ECD-mFc (human; mouse), sequence (Q15116 25-170): as the sequence (chain, as listed by the source limits assumed) above, with E2D, L19V, A35T, R67Q, A144T counted along it
human PD-1-His (human), sequence (Q15116 25-170): as the sequence (chain, as listed by the source limits assumed) above, with E2D, L19V, A35T, R67Q, A144T counted along it

EC50 (read off the curve) [1] | EC50 by the PD-1/PD-L1 luciferase reporter system [2] | EC50 (monkey PD-1-hFc (monkey) [3]) | EC50 [4] | Kd (FcRn protein) | Kd (human PD-1-His (human)) | EC50 [5] | EC50 (monkey PD-1-hFc (monkey) [6]) | Kd (CD64 protein) | Substance
10 ng/mL | 3.79 nM | 0.278 nM | 0.094 nM | 14.5 nM | 5.95 nM | 0.121 nM |  |  | control antibody 3 (tirelizumab, IMGT ID: 757)
 |  | 0.32 nM |  | 16.8 nM |  |  | 0.131 nM | 6.94 nM | control antibody 1 (pembrolizumab, IMGT ID: 472)

From patent publication US20240425593A1
